# Non-standard residues stand in square brackets, D forms with d. No end group written: not given here. Orn = NCCC[C@H](N)C(=O)O
# T1: lecithin:cholesterol acyltransferase (LCAT), purified from human plasma (human, UniProt P04180 25-440)
# T1 sequence (looked up): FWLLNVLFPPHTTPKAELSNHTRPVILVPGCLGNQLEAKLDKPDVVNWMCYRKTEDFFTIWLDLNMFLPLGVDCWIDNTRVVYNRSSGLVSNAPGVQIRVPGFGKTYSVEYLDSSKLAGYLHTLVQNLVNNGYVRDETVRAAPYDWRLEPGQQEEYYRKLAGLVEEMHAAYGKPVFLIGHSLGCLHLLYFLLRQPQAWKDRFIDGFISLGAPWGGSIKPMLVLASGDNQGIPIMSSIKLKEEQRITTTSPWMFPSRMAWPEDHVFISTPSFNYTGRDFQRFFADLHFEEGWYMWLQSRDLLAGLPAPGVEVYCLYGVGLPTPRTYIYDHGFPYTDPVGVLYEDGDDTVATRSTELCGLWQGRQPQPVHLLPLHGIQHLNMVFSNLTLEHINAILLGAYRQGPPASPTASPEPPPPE
# Target: T1, lecithin:cholesterol acyltransferase …
# Experiment: cell-based or functional assay
row,ACTIVITY (%) LCAT,Binder
1,60%,Ac-PVLDLFREWLEELKQKLK-NH2 [peptide 205]
2,58%,GVLDLFRELLNELLEALKQKLK [peptide 18]
3,35%,PVLELFKELLEELKQKLK [peptide 216]
4,10%,GVLELFLNLLERLLDALQKKLK [peptide 177]
5,105%,GVLDLFRELLNELLEALKQKLKK [peptide 2]
6,66%,Ac-AVLDLFRELLEELKQKLK-NH2 [peptide 203]
7,39%,Ac-[dP]VLDLFRELLEELKQKLK-NH2 (SMILES CC(=O)N1CCC[C@@H]1C(=O)N[C@H](C(=O)N[C@@H](CC(C)C)C(=O)N[C@@H](CC(=O)O)C(=O)N[C@@H](CC(C)C)C(=O)N[C@@H](Cc1ccccc1)C(=O)N[C@@H](CCCNC(=N)N)C(=O)N[C@@H](CCC(=O)O)C(=O)N[C@@H](CC(C)C)C(=O)N[C@@H](CC(C)C)C(=O)N[C@@H](CCC(=O)O)C(=O)N[C@@H](CCC(=O)O)C(=O)N[C@@H](CC(C)C)C(=O)N[C@@H](CCCCN)C(=O)N[C@@H](CCC(N)=O)C(=O)N[C@@H](CCCCN)C(=O)N[C@@H](CC(C)C)C(=O)N[C@@H](CCCCN)C(N)=O)C(C)C) [peptide 214]
8,12%,Ac-DVLDLFRELLEELKQKLK-NH2 [peptide 221]
9,3%,PVLELFENLLERLLDALQ[Orn][Orn]L[Orn] [peptide 185]
10,43%,Ac-PVLDLF[Orn]ELLEEL[Orn]Q[Orn]LK-NH2 (SMILES CC(=O)N1CCC[C@H]1C(=O)N[C@H](C(=O)N[C@@H](CC(C)C)C(=O)N[C@@H](CC(=O)O)C(=O)N[C@@H](CC(C)C)C(=O)N[C@@H](Cc1ccccc1)C(=O)N[C@@H](CCCN)C(=O)N[C@@H](CCC(=O)O)C(=O)N[C@@H](CC(C)C)C(=O)N[C@@H](CC(C)C)C(=O)N[C@@H](CCC(=O)O)C(=O)N[C@@H](CCC(=O)O)C(=O)N[C@@H](CC(C)C)C(=O)N[C@@H](CCCN)C(=O)N[C@@H](CCC(N)=O)C(=O)N[C@@H](CCCN)C(=O)N[C@@H](CC(C)C)C(=O)N[C@@H](CCCCN)C(N)=O)C(C)C) [peptide 212]
11,8%,PVLDAFRELLEALAQLKK [peptide 223]
12,76%,Ac-PVLDLFRELWEELKQKLK-NH2 [peptide 199]
13,1%,PVLDAFRELGEALLQLKK [peptide 226]
14,59%,PVLDLLRELLNELLEALKQKLK [peptide 16]
15,75%,Ac-NVLDLFRELLEELKQKLK-NH2 [peptide 200]
16,45%,Ac-PVLDLFRELLEEL[Orn]Q[Orn]L[Orn]-NH2 (SMILES CC(=O)N1CCC[C@H]1C(=O)N[C@H](C(=O)N[C@@H](CC(C)C)C(=O)N[C@@H](CC(=O)O)C(=O)N[C@@H](CC(C)C)C(=O)N[C@@H](Cc1ccccc1)C(=O)N[C@@H](CCCNC(=N)N)C(=O)N[C@@H](CCC(=O)O)C(=O)N[C@@H](CC(C)C)C(=O)N[C@@H](CC(C)C)C(=O)N[C@@H](CCC(=O)O)C(=O)N[C@@H](CCC(=O)O)C(=O)N[C@@H](CC(C)C)C(=O)N[C@@H](CCCN)C(=O)N[C@@H](CCC(N)=O)C(=O)N[C@@H](CCCN)C(=O)N[C@@H](CC(C)C)C(=O)N[C@@H](CCCN)C(N)=O)C(C)C) [peptide 211]
17,8%,PVLDAFRELLEALLQLKK [peptide 222]
18,74%,Ac-PLLDLFKELLEELKQKLK-NH2 [peptide 201]
19,24%,PVLDLFRELLNELWQKLK [peptide 219]
20,9%,PVLELFDNLLEKLLEALQKKLR [peptide 178]
21,7%,PVLELFENLLEKLLEALQKKLK [peptide 182]
22,81%,Ac-PVLDLFRELLEELKNKLK-NH2 [peptide 196]
23,8%,PVLELFENLLERWLDALQKKLK [peptide 181]
24,6%,PLLELFENLLEKLLDALQKKLK [peptide 183]
25,0%,Ac-PVLDLFRELGEELKQKLK-NH2 [peptide 227]
26,8%,PVLDLFREGWEELKQKLK [peptide 224]

row,ACTIVITY (%) LCAT,Binder
1,81%,Ac-PLLDLFRELLEELKQKLK-NH2 [peptide 197]
2,100%,Ac-PVLDLFKELLEELKQKLK-NH2 [peptide 192]
3,48%,Ac-PALELFKDLLEELRQRLK-NH2 [peptide 208]
4,38%,Ac-PVLDLFRELLEEWKQKLK-NH2 [peptide 215]
5,58%,[dP]VLDLFRELLNEGLEALKQKLK [peptide 19]
6,57%,Ac-PLLELLKELLEELKQKLK-NH2 [peptide 206]
7,30%,PVLDLFRELLELLKQKLK [peptide 217]
8,29%,Ac-PVLDLFRELLNELLQKLK-NH2 [peptide 218]
9,87%,Ac-PVLELFKELLEELKQKLK-NH2 [peptide 195]
10,80%,Ac-GVLDLFRELLEELKQKLK-NH2 [peptide 198]
11,47%,PVLDLFRELLNELLQKLK [peptide 209]
12,46%,PVLDLFRELLEELKQKLK [peptide 210]
13,63%,Ac-PVLDFFRELLEELKQKLK-NH2 [peptide 204]
14,59%,PVLELFKELLQELLEALKQKLK [peptide 17]
15,1%,PVLDAFRELAEALAQLKK [peptide 225]
16,4%,PVLELFLNLLERLLDAWQKKLK [peptide 184]
17,70%,Ac-PALELFKDLLEELRQKLR-NH2 [peptide 202]
18,96%,Ac-PVLDLFRELLEELKQKLK-NH2 [peptide 193]
19,50%,Ac-PVLELLKELLEELKQKLK-NH2 [peptide 207]
20,42%,Ac-PALELFKDLLEEFRQRLK-NH2 [peptide 213]
21,88%,Ac-PVLELFRELLEELKQKLK-NH2 [peptide 194]
22,22%,PVLDLFRELLEELQKKLK [peptide 220]
23,8%,PVLELFDNLLERLLDALQKKLK [peptide 179]
24,8%,PVLELFDNLLDKLLDALQKKLR [peptide 180]
25,100%,Ac-PVLDLLRELLEELKQKLK-NH2 [peptide 191]

# — US20050080013A1 (Pfizer, published 2005)
